# B1: NCAP steric zipper segment 179GSQASS184 (peptide)
# peptide: GSQASS
# notes: Nucleocapsid protein (NCAP) of SARS-CoV-2, residues 179-184, within the central LCD; non-phosphorylated peptide
# B2: NCAP steric zipper segment 217AALALL222 (peptide)
# peptide: AALALL
# notes: Nucleocapsid protein (NCAP) of SARS-CoV-2, residues 217-222, within the central LCD; also called H-AALALL-OH
# B3: NCAP steric zipper segment 243GQTVTK248 (peptide)
# peptide: GQTVTK
# notes: Nucleocapsid protein (NCAP) of SARS-CoV-2, residues 243-248, within the central LCD
# Legend:
# [1] = biological target: the molecule itself; test: crystal structure; GSQASS 100 mg/mL in water, hanging drop, 20 °C, 1.0 M Na,K tartrate, 0.2 M Li2SO4, Tris pH 7.0; needle crystals; 1.30 Å
# [2] = biological target: the molecule itself; test: crystal structure; AALALL form 1: batch, peptide in water, acetonitrile and TFA about 45:45:10; needle crystals; 1.12 Å
# [3] = biological target: the molecule itself; test: crystal structure; GQTVTK 68 mg/mL in water, hanging drop, 20 °C, 2.0 M (NH4)2SO4, 0.1 M sodium HEPES pH 7.5, 2% v/v PEG 400; 1.10 Å
protein,measurement,setting,value
B1,binding result,[1],binds
B2,binding result,[2],binds
B3,binding result,[3],binds

# — PMC10127185, “Low complexity domains of the nucleocapsid protein of SARS-CoV-2 form amyloid fibrils” (Nature Communications, 2023)
